This data set in a line: yeast display, Sf9 membrane polyspecificity reagent, FACS + sequencing; frameworks hold sequencing errors. In outline:
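Synthetic nanobody libraries on Saccharomyces cerevisiae BJ5465 were galactose-induced for 36–48 hours, stained 1 hour at 4 °C with 10% biotinylated, detergent-solubilized Sf9 membrane reagent and enriched on streptavidin microbeads. FACS then separated cells into low and high (top ~1%) gates by anti-HA (expression) and streptavidin (reagent binding) fluorescence. Genes were colony-PCR amplified, MiSeq 2 × 250 sequenced and CDR-length filtered. A clone's polyreactivity label is that of its gate of origin.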
Turning to “QVQLVESGGGLVQAGGSLRLSCAASGYIFTGNAMGWYRQAPGKERELVAAISKSGSRTYYADSVKGRFTISRDNAKNTVYLQMNSLKPEDTAVYYCNAYSARDSELDYWGQGTQVTVSS”, the “polyreactivity (PSR sort gate)” value is listed as “high polyreactivity”. For the sequence “QVQLVESGGGLVQAGGSLRLSCAASGYIFTRNAMGWYRQAPGKERELVAAISRSGGSTYYADSLKGRFTISRDNAKNTVYLQMNSLKPEDTSVYYCAAVDKGRPGRDYWGQGTQVTVSS”, the “polyreactivity (PSR sort gate)” value is “low polyreactivity”.

In the case of “QVQLVESGGGLVQAGGSLRLSCAASGYIFTSYAMGWYRQAPGKERELVATITTGGSTYYADSVKGRFTISRDNAKNTVYLQMNSLKPEDTAVYYCNAVLHGWYDYWGQGTQVTVSS”, the “polyreactivity (PSR sort gate)” value is recorded as “low polyreactivity”. As to “QVQLVESGGGLVQAGGSLRLSCAASGYIFTVYAMGWYRQAPGKERELVAAINWSDGSTYYADSVKGRFTISRDNAKNTVYLQMNSLKPEDTAVYYCATEYWYGIYGYDYWGQGTQVSVSS”, the “polyreactivity (PSR sort gate)” value is reported as “high polyreactivity”.

For “QVQLVESGGGLVQAGGSLRLSCAASGYIFTYYAMGWYRQAPGKERELVAAISGSDGNTYYADSVKGRFTISRDNAKNTVYLQMTSLKPEDTAVYYCAKSGGLTFRSQRYDYWGQGTQVTVSS”, the “polyreactivity (PSR sort gate)” value is listed as “low polyreactivity”.

In the case of “QVQLVESGGGLVQAGGSLRLSCAASGYIFVGNAMGWYRQAPGKERELVATIRSSTGNTYADSVKGRFTISRDNAKNTVYLQMNSLKPEDTAVYYCATVYELPGWGREYGYWGQGTQVTVSS”, the “polyreactivity (PSR sort gate)” value is listed as “low polyreactivity”. The entry for “QVQLVESGGGLVQAGGSLRLSCAASGYIFVSNAMGWNRQEPGKERELVAPISGSGGSTYYADSVKGRFTISRDIAKNTVYLQMNSLKPEDTAVYSCAADYATVTWRGIAYDYWGQGTQVTVSS” is “low polyreactivity”. Under “QVQLVESGGGLVQAGGSLRLSCAASGYIFWENAMGWYRQAPGKERELVAAITVSGGGTYYADSVKGRFTISRDNAKNSVYLQMNSLKPEVTAVYYCNVYDKAPAYDYWGQGTQVTVSS” stands “low polyreactivity”; under “QVQLVESGGGLVQAGGSLRLSCAASGYIFYANAMGWYRQPPGKERELVAAISWSGGSTYYADSVKGRFTISRDNAKNTVYLQMNSLKPEDTAVYYCAAAYYETPWDYYYWGQGTQVTVSS”, “low polyreactivity”. Under “QVQLVESGGGLVQAGGSLRLSCAASGYIFYGYVMGWYRQAPGKERELVAGITYSGGGGTHYADSVKGRFTISRDNAKNTVYLQMNSLKPEDNAVYYCAKADPQLNRTYYSYGMDYWGQGTQVTVSS” stands “low polyreactivity”; under “QVQLVESGGGLVQAGGSLRLSCAASGYIFYHNTMGWYRQEPGKERELVAAITIGGRTYYADSVKGRFTISRDNAKNTVYLQMNSLKPEDTAVYYCATASYRNPSDYWGQGTQVSVSS”, “high polyreactivity”. Take “QVQLVESGGGLVQAGGSLRLSCAASGYIFYTYAMGCYRQAPGKERELVAGISGSGGSTYYADSVKGRFTISRDNAKNTVYLQMNSLNPEETAVYYCAKDIYQIGYRRYDSWGQGTQVTVSS”: the “polyreactivity (PSR sort gate)” value was “low polyreactivity”. Under “QVQLVESGGGLVQAGGSLRLSCAASGYIFYVYAMGWYRQAPGKERELVAAINSGDITYYADSVKGRFTISRDNAKNTVYLQMNSLKPEDTAVYYCATVLILIYDYWGQGTQVTVSS” stands “low polyreactivity”; under “QVQLVESGGGLVQAGGSLRLSCAASGYIFYYYTMGWYRQATGKEREFVAAISYSVGSTYADSVKGRFTISRDNAKNTVYLQMNSLKPEDTAVYYCNAVTIRNVYYSGGYWGQGTQVTVSS”, “high polyreactivity”. Take “QVQLVESGGGLVQAGGSLRLSCAASGYIIGGNAMGWYRQAPGKERELVAVISSRGGRTYYADSVKGRFTISRDNAKNTVYLQMNSLKPEDTAVSYCNRDFSYQYKRDYWGQGTQVTVSS”: the “polyreactivity (PSR sort gate)” value was “high polyreactivity”.

“QVQLVESGGGLVQAGGSLRLSCAASGYIITSNAMGWYRQAPGKERELVAAITYSDGSTYYADSVKGRFTISRDNAKNTVYLQMNSLIPEDTAVYYCAVDRDYNVAVLRDLDYWGQGTQVTVSS”: the “polyreactivity (PSR sort gate)” value was “low polyreactivity”. The entry for “QVQLVESGGGLVQAGGSLRLSCAASGYISFGYAMGWYRQAPGKEREFVAAISVGGGTTYYADSVKGRFTISRDNAKNTVYLQMNSLKPEDTAVYYCAVGKYNYRGSWDYYWGQGTQVTVSS” is “high polyreactivity”; for “QVQLVESGGGLVQAGGSLRLSCAASGYIVITYAMGRYRQAPGKERELVAAISRRGGRTYYADSVKGRFTISRDNAKNTVYLQMNSLKPEATAVYYCAADPATSVYGGLNYWGQGTQVTVSS” it is “high polyreactivity”; for “QVQLVESGGGLVQAGGSLRLSCAASGYNFARYAMGWDRQAPGKEREFVAAITWSGGTTYYADSVKGRFTISRDNAKNTVYLQMNRLKPEDTAVYYCAARGYYTEAASSKRGNYWGQGTQVTVSS” it is “high polyreactivity”. Under “QVQLVESGGGLVQAGGSLRLSCAASGYNFAYYAMGWYRQAPGTERELVAAISWSGSSTYYADSVKGRFTISRDNAKNTVYLQMNSLKPEDTAVYYCAKGYTSYNLGKYGYCGQGTQVTVSS” stands “low polyreactivity”. Under “QVQLVESGGGLVQAGGSLRLSCAASGYSFYYYAMVWYRQAPGKERELVAAITSGDSTYADSVKGRFTISRDNAKNTVYLQMNSLKPEDTAVYYCNRDTDYGFDYWGQGTQVTVSS” stands “low polyreactivity”; under “QVQLVESGGGLVQAGGSLRLSCAASGYTFASYTMGWYRQAPGKERELVATISRGGGRTYYADSVKGRFTISRDNAKNTVYLQMNSLKPEDTAVYYCARPSTFYTGYRQAHFDYWGQGTQVTVSS”, “high polyreactivity”. Regarding “QVQLVESGGGLVQAGGSLRLSCAASGYTFDANAMGWYRQAPGKERELVAAIRSGGGLTYYADSVKGRFTISRDNAKNTVYLQMNSLKPEDTAVYYCAAVTRRDSFEYWGQGTQVTVSS”, the “polyreactivity (PSR sort gate)” value is on record as “low polyreactivity”. The entry for “QVQLVESGGGLVQAGGSLRLSCAASGYTFDAYAMGWYRQAPGKERELVAAISGDSTNYADSVKGRFTISRDNAKNTVYLQMNSLKPEDTAVYYCAAAFWYDYWEKYDYWGQGTQVTVSS” is “low polyreactivity”. Under “QVQLVESGGGLVQAGGSLRLSCAASGYTFDAYSMGWYRQAPGKERELVAAITTNGGSTYYADSVKGRFTISRDNAKNTVYLQMNSLKPEDTAVYYCNAEYSYEGRYPYDYWGQGTQVTVSS” stands “low polyreactivity”; under “QVQLVESGGGLVQAGGSLRLSCAASGYTFDDYEMGWYRQAPGKERELVAAISRGGSTYYADSVKGRFTISRDNEKNTVYFQMNSLKPEDTAVYYCGAVYRVRKITYDYWGQGTQVTVSS”, “high polyreactivity”; under “QVQLVESGGGLVQAGGSLRLSCAASGYTFDGYAMGRYRQAPGKERELVAAINSGGGTYYADSVKGRFTISRDNAKNTVYLQMNSLKPEDTAVYYCAKYTYDYWGQGTQVTVSS”, “low polyreactivity”. The entry for “QVQLVESGGGLVQAGGSLRLSCAASGYTFDWYAMGWYRQAPGKERELVAAISYSTGSTYYADSVKGRFTISRDNAKNTVYLQMHSLKPEDTAVYYCATRYWRSGYDWPYGSWGQGTQVTVSS” is “high polyreactivity”; for “QVQLVESGGGLVQAGGSLRLSCAASGYTFEYNAMGWYRQATGKEREFVATITASGDSTYYADSVKGRFTISRDNAKNTVYLQMNSLKPEDTAVYYCATEKRDVYFTAKYDYWGQGTQVTVSS” it is “low polyreactivity”.

On to “QVQLVESGGGLVQAGGSLRLSCAASGYTFFRNTMGWYRQAPGKERELVAVITKSGGSTYYADSVKGRFTISRDNAKNTVYLQMNSLKPEDTAVYYCNAVNALRNTEYNYWGQGTQVTVSS”, for which the “polyreactivity (PSR sort gate)” value is “high polyreactivity”. The entry for “QVQLVESGGGLVQAGGSLRLSCAASGYTFFRYAMGWYRQAPGKERELVAAISGGGGSTYYADSVKGRFTISRDYAKNTVYLQMNSLKPEDTAVYYCAAESQAYSLYWGQGTQVTVSS” is “high polyreactivity”; for “QVQLVESGGGLVQAGGSLRLSCAASGYTFGLYTMGWYRQAPGKEREFVATIDWSEGGTHYADSVKGRFTISRDIAKISVYLQMNSLKPEYTAVYYCNADWYAYPYGYWGQGTQVTVSS” it is “low polyreactivity”; for “QVQLVESGGGLVQAGGSLRLSCAASGYTFGQYAMGWYRQAPGKEREMVAAISSGGGSTYYADSVKGRFTISRDNAKTTVYLQMNSLKPEDTAVYYCAAQYLYPTYRYGYWGQGTQVTVSS” it is “high polyreactivity”. The entry for “QVQLVESGGGLVQAGGSLRLSCAASGYTFGSNTMGWYRQAPGKERELVAVITWSGGSTYYADSVKGRFTISRDNAKNTVYLQMNSLKPEDTAVYYCAADATSPLTWFDYWGQGTQVTVSS” is “low polyreactivity”; for “QVQLVESGGGLVQAGGSLRLSCAASGYTFGSYAMGWYRQAPGKERELVAAISGGGSTNYADSVKGRFTISRDNAKNTVYLQMNSLKPEDTAVYYCAADIRWGQGTQVTVSS” it is “low polyreactivity”; for “QVQLVESGGGLVQAGGSLRLSCAASGYTFGTYAMGWYRQAPGKERELVAAITTNVGSTYYADSVKGRFTISRDNAKNTVYLQMNSLKPEDTAVYYCAADVGWRFGDITYWAYDYWGQGTQVTVSS” it is “low polyreactivity”.

On to “QVQLVESGGGLVQAGGSLRLSCAASGYTFGTYDMGWYRQAPGNERELGAAISLGGSTNYADSVKGPFTISRDNAKNTVYLQMYSLKPEDTAVYYCAAEVNVGTLLLSVIVEDGDYWGQGTQVTVSS”, for which the “polyreactivity (PSR sort gate)” value is on record as “low polyreactivity”. The entry for “QVQLVESGGGLVQAGGSLRLSCAASGYTFGYNAMGWYRQAPGKERELVAAISWNAGSTYYADSVKGRFTISRDNAKNTVYLQMNSLKPEDTAVYYCATEGTYIYNYWGQGTQVTVSS” is “low polyreactivity”; for “QVQLVESGGGLVQAGGSLRLSCAASGYTFGYNAMGWYRQAPGKERELVANITWRGGSTNYADSVKGRFTISRDNAKNTVYLQMNSLKPEDTAVYYCAADRPWYYGRYYYWGQGTQVTVSS” it is “high polyreactivity”; for “QVQLVESGGGLVQAGGSLRLSCAASGYTFGYYAMGWYRQAPGKERELVAAINYSGGRTYYADSVKGRFTISRDNAKNTVYLQMNSLKPEDTAVYYCNAKYGGWSKYWFPRDMDYWGQGTQVTVSS” it is “low polyreactivity”. Under “QVQLVESGGGLVQAGGSLRLSCAASGYTFIHNAMGWYRQAPGKERELVAAINRSGGITNYADSVKGRFTISRDNAKNTVYLQMNSLKPEDTAVYYCNADVDPLPPRYLHREVLKEYNYWGQGTQVTVSS” stands “low polyreactivity”.

For the origin of these results see the nanobody polyreactivity screen of Harvey et al. (2022).
